# Substitutions are numbered along the chain they refer to.
# B1: IFWM3328 (antibody, V domains shown)
# VH: EVQLVQSGAEVKKPGESLKISCKGSGYSFTSYWIGWVRQMPGKGLEWMGIIDPSDSDTRYSPSFQGQVTISADKSISTAYLQWSSLKASDTAMYYCARHPGLNWAPDFDYWGQGTLVTVSS
# VL: DIQMTQSPSSLSASVGDRVTITCRASQSINNLNWYQQKPGKAPKLLIYWASSLQSGVPSRFSGSGSGTDFTLTISSLQPEDFATYYCQQGYDTPFTFGQGTKVEIK
# notes: VH IFWH591, VL IFWL1064; converted mAb; also called IFWB3063
# B2: IFWM3338 (antibody, V domains shown)
# VH: B1 VH
# VL: DIQMTQSPSSLSASVGDRVTITCRASQSIRNTNLNWYQQKPGKAPKLLIHWASSLQSGVPSRFSGSGSGTDFTLTISSLQPEDFATYYCQQGYDTPFTFGQGTKVEIK
# notes: VH IFWH591, VL IFWL1091; converted mAb; also called IFWB3073
# B3: IFWM3339 (antibody, V domains shown)
# VH: B1 VH
# VL: B2 VL with R30A, T32N, N33D, G92D, T95W, F97L
# notes: VH IFWH591, VL IFWL1093; converted mAb; also called IFWB3074
# B4: IFWM3337 (antibody, V domains shown)
# VH: B1 VH
# VL: B2 VL with R30S, T32S, G92W, T95H, F97L
# notes: VH IFWH591, VL IFWL1087; converted mAb; also called IFWB3072
# B5: IFWM3335 (antibody, V domains shown)
# VH: B1 VH
# VL: B1 VL with N31Y, W49G, G90S, Y91H, T93W, F95I
# notes: VH IFWH591, VL IFWL1084; converted mAb; also called IFWB3070
# B6: IFWM3379 (antibody, IgG1, V domains shown)
# VH: B1 VH with N103A
# VL: DIQMTQSPSSLSASVGDRVTITCRASQSIDGSLNWYQQKPGKAPKLLIYFASSLQSGVPSRFSGSGSGTDFTLTISSLQPEDFATYYCQQSYDFPLTFGQGTKVEIK
# notes: mAb; IgG1/kappa said of the parent and of selected mAbs; also called IFWB3114
# B7: IFWM3401 (antibody, IgG1, V domains shown)
# VH: B1 VH with N103A
# VL: B6 VL with D30T, G31N, S32H, S91A, Y92H, D93N
# notes: mAb; IgG1/kappa said of the parent and of selected mAbs; also called IFWB3136
# B8: IFWM3391 (antibody, IgG1, V domains shown)
# VH: B1 VH with N103A
# VL: B6 VL with D30N, G31N, S32F, Y92F, D93N, F94L, L96I
# notes: mAb; IgG1/kappa said of the parent and of selected mAbs; also called IFWB3126
# B9: IFWM3293 (antibody, IgG1, V domains shown)
# VH: B1 VH with N103A
# VL: B6 VL with G31E, S32F, S91A, Y92H, D93S
# notes: mAb; IgG1/kappa said of the parent and of selected mAbs; also called IFWB3028
# B10: IFWM3381 (antibody, IgG1, V domains shown)
# VH: B1 VH with N103A
# VL: B6 VL with D30G, G31S, S32F, D93S, F94I, L96I
# notes: mAb; IgG1/kappa said of the parent and of selected mAbs; also called IFWB3116
# B11: IFWM3389 (antibody, IgG1, V domains shown)
# VH: B1 VH with N103A
# VL: B6 VL with G31D, S32F, Y92H, D93T, F94L
# notes: mAb; IgG1/kappa said of the parent and of selected mAbs; also called IFWB3124
# B12: IFWM3387 (antibody, IgG1, V domains shown)
# VH: B1 VH with N103A
# VL: B6 VL with D30G, S32F, D93S, F94L, L96I
# notes: mAb; IgG1/kappa said of the parent and of selected mAbs; also called IFWB3122
# B13: IFWM3390 (antibody, IgG1, V domains shown)
# VH: B1 VH with N103A
# VL: B6 VL with S32A, Y92F
# notes: mAb; IgG1/kappa said of the parent and of selected mAbs; also called IFWB3125
# B14: IFWM3388 (antibody, IgG1, V domains shown)
# VH: B1 VH with N103A
# VL: B6 VL with D30G, G31K
# notes: mAb; IgG1/kappa said of the parent and of selected mAbs; also called IFWB3123
# B15: IFWM3394 (antibody, IgG1, V domains shown)
# VH: B1 VH with N103A
# VL: B6 VL with D30N, G31E, S32F, D93S, F94T
# notes: mAb; IgG1/kappa said of the parent and of selected mAbs; also called IFWB3129
# B16: IFWM3382 (antibody, IgG1, V domains shown)
# VH: B1 VH with N103A
# VL: B6 VL with D30G, G31S, S32A
# notes: mAb; IgG1/kappa said of the parent and of selected mAbs; also called IFWB3117
# B17: IFWM3386 (antibody, IgG1, V domains shown)
# VH: B1 VH with N103A
# VL: B6 VL with D30A, G31E, S32F, Y92I
# notes: mAb; IgG1/kappa said of the parent and of selected mAbs; also called IFWB3121
# B18: IFWM3393 (antibody, IgG1, V domains shown)
# VH: B1 VH with N103A
# VL: B6 VL with D30T, G31S, Y92F, F94L
# notes: mAb; IgG1/kappa said of the parent and of selected mAbs; also called IFWB3128
# B19: IFWM3384 (antibody, IgG1, V domains shown)
# VH: B1 VH with N103A
# VL: B6 VL with D30T, G31N, S32F, Y92L
# notes: mAb; IgG1/kappa said of the parent and of selected mAbs; also called IFWB3119
# B20: IFWM3380 (antibody, IgG1, V domains shown)
# VH: B1 VH with N103A
# VL: B6 VL with D30N, G31R, S32F, F50A, S91A, Y92I, F94L, L96F
# notes: mAb; IgG1/kappa said of the parent and of selected mAbs; also called IFWB3115
# B21: IFWM3392 (antibody, IgG1, V domains shown)
# VH: B1 VH with N103A
# VL: B6 VL with G31R, S32A, Y92F
# notes: mAb; IgG1/kappa said of the parent and of selected mAbs; also called IFWB3127
# B22: IFWM3383 (antibody, IgG1, V domains shown)
# VH: B1 VH with N103A
# VL: B6 VL with D30S, G31K, S32F, Y92N, D93T, F94L, L96F
# notes: mAb; IgG1/kappa said of the parent and of selected mAbs; also called IFWB3118
# Target: T1, IFN-αC (human, UniProt P01566 24-189)
# T1 construct: also called IFN-α10; alpha C
# Experiment: ProteOn, one antigen concentration
# Excerpt: (§1) To increase the assay throughput, only one concentration of the individual antigen was used.
row,Binder,Kd [pM]
1,B1,99
2,B2,46
3,B3,59
4,B4,17
5,B5,49

# Target: T2, IFN-αJ1 (human, UniProt P01567 24-189)
# T2 construct: also called IFN-α7; alpha J1
# Experiment: ProteOn, one antigen concentration
# Excerpt: as §1
row,Binder,Kd [pM]
1,B1,360
2,B2,245
3,B3,161
4,B4,71
5,B5,245

# Target: T3, IFN-α4a (human, UniProt P05014 24-189)
# T3 construct: also called IFN-αM1
# Experiment: ProteOn, one antigen concentration
# Excerpt: as §1
row,Binder,Kd [pM]
1,B1,410
2,B2,319
3,B3,235
4,B4,91
5,B5,336

# Target: T4, human IFN-ω (human, UniProt P05000 24-195)
# T4 construct: also called interferon omega
# Experiment: ProteOn, one antigen concentration
# Excerpt: as §1
row,Binder,Kd [pM]
1,B1,108
2,B2,57
3,B3,49
4,B4,20
5,B5,42

# Target: T5, IFN-αWA (human, UniProt P05015 24-189)
# T5 construct: also called IFN-α16; alpha WA
# Experiment: ProteOn, one antigen concentration
# Excerpt: as §1
row,Binder,Kd [pM]
1,B1,207
2,B2,200
3,B3,141
4,B4,37
5,B5,137

# Target: T6, IFN-αG (human, UniProt P01569 24-189)
# T6 construct: also called IFN-α5; alpha G
# Experiment: ProteOn, one antigen concentration
# Excerpt: as §1
row,Binder,Kd [pM]
1,B1,72
2,B2,46
3,B3,79
4,B4,34
5,B5,77

# Target: T7, IFN-αF (human, UniProt P01568 24-189)
# T7 construct: also called IFN-α21; alpha F
# T7 chain: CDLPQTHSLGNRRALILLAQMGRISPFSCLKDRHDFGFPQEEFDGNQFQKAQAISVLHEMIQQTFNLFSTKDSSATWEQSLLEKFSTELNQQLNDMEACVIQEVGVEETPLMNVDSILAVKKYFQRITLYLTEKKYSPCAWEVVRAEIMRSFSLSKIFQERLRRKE
# Experiment: ProteOn, one antigen concentration
# Excerpt: as §1
row,Binder,Kd [pM]
1,B1,91
2,B2,64
3,B3,65
4,B4,16
5,B5,61

# Target: T8, IFN-αWA (human, UniProt P05015 24-189)
# T8 construct: Recombinant, HEK293; also called IFN-α16
# Experiment: ProteOn SPR, cell supernatant;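 note: each binding measurement used just a single antigen concentration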
# Excerpt: as §1
row,Binder,Kd [pM]
1,B6,23
2,B7,76
3,B8,42
4,B9,46
5,B10,67
6,B11,30
7,B12,69
8,B13,29
9,B14,44
10,B15,49
11,B16,32
12,B17,35
13,B18,78
14,B19,17
15,B20,59
16,B21,25
17,B22,64

# Target: T9, IFN-αG (human, UniProt P01569 24-189)
# T9 construct: Recombinant, HEK293; also called IFN-α5
# Experiment: ProteOn SPR, cell supernatant;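 note: each binding measurement used just a single antigen concentration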
# Excerpt: as §1
row,Binder,Kd [pM]
1,B6,13
2,B7,67
3,B8,44
4,B9,37
5,B10,53
6,B11,33
7,B12,34
8,B13,10
9,B14,27
10,B15,91
11,B16,30
12,B17,26
13,B18,64
14,B19,22
15,B20,70
16,B21,19
17,B22,84

# Target: T10, IFN-αF (human, UniProt P01568 24-189)
# T10 construct: Recombinant, HEK293; also called IFN-α21
# T10 chain: T7 chain
# Experiment: ProteOn SPR, cell supernatant;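 note: each binding measurement used just a single antigen concentration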
# Excerpt: as §1
row,Binder,Kd [pM]
1,B6,13
2,B7,28
3,B8,25
4,B9,17
5,B10,92
6,B11,9
7,B12,58
8,B13,11
9,B14,19
10,B15,63
11,B16,20
12,B17,29
13,B18,41
14,B19,33
15,B20,32
16,B21,14
17,B22,60

# Target: T11, IFN-αC (human, UniProt P01566 24-189)
# T11 construct: Recombinant, HEK293; also called IFN-α10
# Experiment: ProteOn SPR, cell supernatant;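 note: each binding measurement used just a single antigen concentration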
# Excerpt: as §1
row,Binder,Kd [pM]
1,B6,13
2,B8,16
3,B9,25
4,B10,79
5,B11,24
6,B12,90
7,B13,11
8,B14,30
9,B15,63
10,B16,24
11,B17,31
12,B18,49
13,B19,29
14,B20,46
15,B21,16
16,B22,69

# Target: T12, IFN-αJ1 (human, UniProt P01567 24-189)
# T12 construct: Recombinant, HEK293; also called IFN-α7
# Experiment: ProteOn SPR, cell supernatant;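 note: each binding measurement used just a single antigen concentration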
# Excerpt: as §1
row,Binder,Kd [pM]
1,B6,33
2,B7,78
3,B8,66
4,B9,62
5,B10,121
6,B11,32
7,B12,161
8,B13,30
9,B14,55
10,B15,77
11,B16,37
12,B17,87
13,B18,96
14,B19,68
15,B20,76
16,B21,21
17,B22,86

# Target: T13, IFN-α4a (human, UniProt P05014 24-189)
# T13 construct: Recombinant, HEK293; also called IFN-αM1
# Experiment: ProteOn SPR, cell supernatant;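 note: each binding measurement used just a single antigen concentration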
# Excerpt: as §1
row,Binder,Kd [pM]
1,B6,72
2,B7,195
3,B8,117
4,B9,166
5,B10,171
6,B11,98
7,B12,169
8,B13,75
9,B14,84
10,B15,105
11,B16,75
12,B17,103
13,B18,166
14,B19,77
15,B20,88
16,B21,58
17,B22,143

# Target: T14, human IFN-ω (human, UniProt P05000 24-195)
# T14 construct: Recombinant, HEK293; also called interferon omega
# Experiment: ProteOn SPR, cell supernatant
# Excerpt: as §1
row,Binder,Kd [pM]
1,B6,15
2,B7,62
3,B8,23
4,B9,29
5,B10,45
6,B11,17
7,B12,39
8,B13,10
9,B14,33
10,B15,45
11,B16,30
12,B17,26
13,B18,57
14,B19,26
15,B20,25
16,B21,23
17,B22,28

# — patent publication US20150368338A1 (Janssen / Centocor, published 2015)
